Results from a protein production outcome set (Wang et al. 2014).

Assay: label from the status in PepcDB records
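Also: failed if final PepcDB status was selected cloned or expressed and not failed if soluble or beyond.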

Row | Sequence | protein production
1 | MDLDLRKLRYFVAVADRLHFGRAADALHIAQPALSRQIRALEQDLGASLFTRDSHGVTLTDAGRQLLDDAGPLLASAHAVRRRVSVAERGGRRLVVGFRAGIPVIPATRVFEAQHPDVVVDVQRMEWDDQASMLLDGRVDVAYVRLPLAETGLRLAPLYTEPLMVALPAGHRLAGKDEVTEADLAGEPLIWHADASRQPTRRPHPDSGLRVRGVEEKLEHVAAGRGISFVGRSEAVFFSRPDISYVPVPDLAPDQVCVAMAASRTSPLADSFFAAAQTTAEITAECGNYEMWRLASDAASKRD | failed
2 | MKLIKNGKVLQNGELQQADILIDGKVIKQIAPAIEPSNGVDIIDAKGHFVSPGFVDVHVHLREPGGEYKETIETGTKAAARGGFTTVCPMPNTRPVPDSVEHFEALQKLIDDNAQVRVLPYASITTRQLGKELVDFPALVKEGAFAFTDDGVGVQTASMMYEGMIEAAKVNKAIVAHCEDNSLIYGGAMHEGKRSKELGIPGIPNICESVQIARDVLLAEAAGCHYHVCHVSTKESVRVIRDAKRAGIHVTAEVTPHHLLLTEDDIPGNNAIYKMNPPLRSTEDREALLEGLLDGTIDCIATDHAPHARDEKAQPMEKAPFGIVGSETAFPLLYTHFVKNGDWTLQQLVDYLTIKPCETFNLEYGTLKENGYADLTIIDLDSEQEIKGEDFLSKADNTPFIGYKVYGNPILTMVEGEVKFEGDK | failed
3 | MPLHRTPRTGPEPRTLALLAGAGLAAGAAAWAVSRSRENPVVFRPNDDAPDRVARHPEATMPTGRTVTINRPRSELFAFWRDFSNLPQFMESVEHVTVVGDVSRWTLAAPFGRKITLETRIVEEVPDRLIAWRSTDGSDVRAEGAVTFRDAPAGRGTEVEAVVAYVPAGGEAGRLIARLFRLAPAMQGRRELRRFKMLMEAGEIATSRNRKD | failed
4 | MVSPQGVIVARAIISCGVASKKPFYRDQTMETDFSVHSHKGKGSLMRRKPALRLLCSAALAAALAIGAGASPGFAETKAKPEDKAVTFDPGKVNTFSGAFLAGRNADVDQDYPTAISLYKKALEYDPANSEIRQRLMIAELLSGNFEAGAKIADSMKDDTSVERVTTIVRGLDAIKDKEFTKAEKILKYTGPNDLDRMVNTLLTAWARAGSGKPKEALALVNNMKGPGWISIFQKYNAAAIALVSGNTEAARKSLNEAVTDREGGATASDTYMRAVMALARLEASAGNKQKALDAIAVGDTFAPNYAPLKALREAIEKGEKPEQQITNAVEGAASVMFSIAGALNREGAEEIVTLYLQTSRALDPKSPDTLILLGGLAEAMKQPERAITFYREVPKDSPMHRISELQLGLTLAQTGKVEESRKHLLSLLESDPKDIRSYLAYGSVLSDAKDYKAMAENYDKAVEVIGAVPQKSDWSVFFQRGIAYERLKQWDKAEPNFKRALELNPEQPQVLNYLGYSWVDKGINLDEGMKMISRAVELRPNDGYIVDSLGWAHYRLGDFDQSVTELERAIELKAGDPTINDHLGDAYWRVGRKIEAVYQWNRALIGDNDDVDKAKVKEKIANGLPPVEKDAENTAKKDVAPQPPAPPAPATPTPDKKS | failed
5 | MFTGFGAASFSAPAKAAAQTNTLSENTNQSAAELVKNLYNTAYKGEMPQQAQGLTINKSTKGDVHAAFGEPERPVGGDNRFDLYHWNMGQPGYGFSYHKDMTISEIRYFGTGVERQLNLGGVTPEVLQKQLGPVNRVLTVPFTDEIDYVYDTGRYELHFVIGTDQTADHVNLKAKLEHHHHHH | not failed
6 | MSYNLNLSHNIYKDAKLGTYYFRITYYDKSNTRKYITRKGFKQRKDAVKKCNEMMDELEGVGHLNRLPFDKLVEEYIDWYSARRKTSSVKALKTHTNNHLLPYFKSMDVFKMTTQDVMKFQNKKLKEGHSGDYLKKMHVYLVSLLNHAMKFHELKQNVASLVGNFEIESQKRLNYWTLEQFNQFYEALATQQQKLFFKLLFYSGARKGEIRALTWRDINFDDDFIHINKTDYHGEVTAPKTKSAIRDIYLPTHMMYDIKDYLIWYKENNIYKDDYVLFGTFYKAYSESTIDRWFTNALKVLDEQLPNGQNFPRIVIHELRHSHASMLVNLGASVMIIAQRLGHSDTTEVYNRYGHLYPSTQKEIVKYL | failed
7 | MSVFAKVVELGSFTAAARQLQMSVSSISQTVAKLEDELQVKLLNRSTRSLGLTEAGKIYYQGCRRMLFEAQDVHEQLYAFNNTPIGTLRIGCSSTMAQNVLARITAKMLKEYPGLSVNLVTGIPAPDLIADGLDVVIRVGALQDSSLFSRRLGSMPMVLCAAKSYLAQAGNPEKPADLAGHAWLEYSVRPDNEFVIIAPEGISTRLTPQGRFVTNDPMTLVRWLTAGVGIAYVPLMWAIEEINRGELEILLPSYQSDPRPVYALYTEKDKLPLKVQVCINYLTEYFVDVAKIYQGMHGRGIAR | failed
8 | MPVIHCNKDDSQEASSQTPFLPLGFVFTKLYICLTIYSGGDDESMDGDINKYLVLAIIGVGGLSGLVASQSTGRNFPPATANKTVGR | failed
9 | MQMNSEKFFKLFRVGETVLVEYSGTSRAELLLYYIVNNSKLPIVVDDILDTYYEFYTRLKVAGFDVAPLENVQVIKMGGTKDIGRVIGRLNISKYVISEQEYMEIVSQLKDYPVINPVLGLHKLILLGNTFENINVVKMVSNYVGREERIAFYFVNRNVIEKHSSPILDLLEEVVTSILEITDSGIIIKKSIKDEIAGKIVSPLLNF | not failed
10 | MAKGYWIAQVDVRDSERYKDYVSTAKPAFERFGANFLARGGSVTELEGTARARNVVIEFPSVQHAIDCYNSPEYQAAAKIRQEVADAEMMIVEGI | not failed
11 | MQRTAVLPYVQLLKPITWFAPMWAFGCGLISSGLPVWDRWPVIALGVLLCGPLVCGTSQAVNDWFDRHVDAINEPDRPIPSGRIPGRVGLYIAIGWTVLSLAVAWVLGPWVFGAAIFGLALAWAYSAPPFRLKGNGWWGNSAVGLCYEGLPWFTGAAVIAGALPDTRIVLLAVLYSIGAHGIMTLNDFKAVEGDIRMGVRSLPVQLGVAPAARLACAVMAVPQMVVIGLVASWDRPYHAGAVGLLLLAQFVLMARLLKRPRELAPWYNATGTTLYVIGMMVSAFALAPLIGAVELAPLIGAAP | failed
12 | MSFEEFTPLNEKSLVDYIKSTPALSSKIGADKSDDDLVIKEVGDGNLNFVFIVVGSSGSLVIKQALPYIRCIGESWPMTKERAYFEATTLRKHGNLSPDHVPEVYHFDRTMALIGMRYLEPPHIILRKGLIAGIEYPFLADHMSDYMAKTLFFTSLLYHDTTEHRRAVTEFCGNVELCRLTEQVVFSDPYRVSTFNRWTSPYLDDDAKAVREDSALKLEIAELKSMFCERAQALIHGDLHTGSVMVTQDSTQVIDPEFSFYGPMGFDIGAYLGNLILAFFAQDGHATQENDRKEYKQWILRTIEQTWNLFNKRFIALWDQNKDGPGEAYLADIYNNTEVLKFVQENYMRNLLHDSLGFGAAKMIRRIVGVAHVEDFESIEEDKRRAICERSALEFAKMLLKERRKFKSIGEVVSAIQQQS | failed
13 | MVIREALLYIAMLKLEIEALQREYEDLKITKKESLHQFQEVKVEKIGEMFQVKIKSPRGENNLVNILEAFEEMGLNVAQARASCLDSFAMEAIVAPQSKDKLCSVDDLTQTLVKALVKPSVPL | failed
14 | EKGTTGTGNAALDNIFERKSVRTYLNKGVEKEKIDLMLRAGMSAPSGKDVRPWEFVVVSDRAKLDSMAAALPYAKMLTQARNAIIVCGDSARSFYWYLDCSAAAQNILLAAESMGLGAVWTAAYPYEDRMEVVRKYTHLPENILPLCVIPFGYPATKEQPKQKYDEKKIHYNQY | not failed
15 | PIDLITVGSLIELQDSQNPFQYWIVSVIENVGGRLRLRYVGLEDTESYDQWLFYLDYRLRPVGWCQENKYRMDPPSEIYPLKMASEWKCTLEKSLIDAAKFPLPMEVFKDHADL | not failed
16 | MSILHTVNKSPFERNSLESCLKFATEGASVLLFEDGIYAALAGTRVESQVTEALGKLKLYVLGPDLKARGFSDERVIPGISVVDYAGFVDLTTECDTVQAWL | not failed
17 | MTRRGWILFVALCVLWGIPYLLIKVAVRDLTPASLVFLRTATGAVLLLPFVLVRGNLRPVLARWRPIALFTFGEMAVPWLLLADAERHVTSSLAGLVIAATPLVGALASRLSAGHEPLGARRMSGLAVGLAGVVALLGLDLGRGDARAVAELAVVVIGYALAPRIVARRLSDLPALDVVAVSLAMCALAYAPFGIAQLPAALPPAEALGAVAGLGVLCTALAFTLFFQLIAEVGPVRATVVAYVNPAVAVAAGVTLLGEPFTVGTAVGFALILGGSWLATSGAAGRARTPAPASAPAAPGAVAPAAAERAG | failed
18 | MSEGSNVLVSIILVNYNGADILPDCLNSIDKFISKDNCEILLVDNASQDNSYELVAQDFPDVKIVRLPKNYGFGAGNNAGAKIAKGKFLLLLNTDTILTTNILPHLIDLMRENPDVGIIGTKLVFPDETFQISFAYTIGIKGEYKSRKLHEYAEDKSKLNSLEQEFNTIKEVDIVVGAALFIRADLFHSVGGFDEKFFIYFEDADLCRRVQNQGYKILYTPQVSLIHIRGHSMKKNANATVVEYRRSQLYYYKKHCPVWERIILRIYLFAKFLPEFLATRNPYSLEIIKLLFVIA | failed
19 | MGSPKVEDTLISDAQIEEAKQDGTTTAVYVIARNSGEFADRLDAEGDYQLWSNEEENLKKVVANFDNVIVVLNVGGIIDTKFFHEIEGLDSLLLMSQAGMRGGDAVVKVLNGEVTPSGKLTDTWAVNYEDYSSSETFGKNDVNTTQEDYTDDIYVGYRYFDTFNVTPAYEFGYGLSYTDFNIDVKDVTVDEENVTVDVKVTNVGKQYSGKEVVEVYFSAPDGALEKPYQELATYGKTDTLAPGESQTLTLSYATTEMSAYSEDLAAYVMEDGDYLVRVGNSSRNTSVEAVINLDSNKVTEQLSNQMVQDEEIDTLSNEGATPYTYEGEAEEIAKAERFELDANAIETVNNASEYDDESVISYVYEGSDYTVVDQEANPRYTKAPSGNNTTPSQLIEPYEETIQYVEKTKENPTLLDVYQGTVTMEELLASLSVEEMSNIVEGLGWGGGSEPIIGAQANSVKGAAGETTSKYYETRAIPNTVLADGPAGIRITQSYEEDGTTYYQYCTAFPIGTLIAQSWDKDVAKQFGEAIGEEMLEMGVTMWLAPGMNIHRNPLCGRNFEYYSEDPLVAGVTAASTTLGVQSHEGIGVTLKHYAANNQEDNRNAVNNTITERALREIYLKGFEIAVKTANPMALMTCYNLNNAMPGADDYDLCTDIPRGEWGFNGLIMTDWGGGQSTPVNSMHAGNDLIMPGGSSKSIAEATGVTLPLGDLQKATRNVLNVIMDSTQFKKIGVENGVEVEIGKFTESAGLGLFLDVTKSEVTSVNKTALQIAVDVASNIADEELENVVPAVANELKAALEEAKAILEDATAEQETVDASFDRLATAIQMLDFIKGDKAALRSFITKVENTVEEEYTPATWTAFAAALGTGNTVLANENAMQEEVDNAYTNLVKAYLNLRLVPNKDKLEDLINQTKALVAANYTADTWKNVSDALVLAENVMSNENATSEEVANAETVLTKAVEGLVVNNTPVTPSTPAVDNTVDSTVKTPVNSGDTTASVKTGDESLTGLFGGITLLSLAGAVLLKRKEN | failed
20 | MSIDWAALGSVFGVSLVVTVGLVGLFTLGIVGLTKKESAEGGSAALATTGAYACFAACAAAVAYGIYLIVA | failed
21 | MHLYDKRPGGGASFSQILGQAKNRQGIFFNTTFAVMGHVAKASGRVTETDIRIATLLMDQMRLTGDARKEAQQAFREGKEPDFDLCSSLQAFRAVTQGRQELVQMFIEIQIQTALSDGELDAAEHAILMTVAQELGYGRLEHHHHHH | failed
22 | MPKRKNTSIKDYKLKSGKKRYMFQIYLGTNSNGKPIITRRRGFKSYAEAEAVFNKMSQIKPDNFVKQKQIKVAELRELWFENYKTQVKESTANKNKQVFDNHVIPAFGNQYIDKITVAELQKWADRKAKQIVKYRDAINEFNALFEYGIRLNYVSENPLKRIIIPKKTSRPRRDTEHNVYTQDELNQFLEVAKDYGLVPYTYFKLLSATGLRKSEALALTWSDINLTAGTLSVNKTLAYGLNGKTIIQPPKSPKSKRILPISDGLKEVLIDYKRKQKIISKELFHTNKGTYLRISKPDQWLKSIYAKDHEEKAEYAKKYNLKEPQPDLRHITVHGFRHTFATLLIAETNVKPKTVQMLLGHENIQMTLDIYTHINKKNTEDAVNALKQLNI | failed
